The values that follow come from PMC10786891, “Massively parallel profiling of RNA-targeting CRISPR-Cas13d”.

The chains are these.
T1: EsCas13d, nuclease-dead (Eubacterium siraeum, UniProt B0MS50, R295A;H300A;R849A;H854A)
T1 sequence: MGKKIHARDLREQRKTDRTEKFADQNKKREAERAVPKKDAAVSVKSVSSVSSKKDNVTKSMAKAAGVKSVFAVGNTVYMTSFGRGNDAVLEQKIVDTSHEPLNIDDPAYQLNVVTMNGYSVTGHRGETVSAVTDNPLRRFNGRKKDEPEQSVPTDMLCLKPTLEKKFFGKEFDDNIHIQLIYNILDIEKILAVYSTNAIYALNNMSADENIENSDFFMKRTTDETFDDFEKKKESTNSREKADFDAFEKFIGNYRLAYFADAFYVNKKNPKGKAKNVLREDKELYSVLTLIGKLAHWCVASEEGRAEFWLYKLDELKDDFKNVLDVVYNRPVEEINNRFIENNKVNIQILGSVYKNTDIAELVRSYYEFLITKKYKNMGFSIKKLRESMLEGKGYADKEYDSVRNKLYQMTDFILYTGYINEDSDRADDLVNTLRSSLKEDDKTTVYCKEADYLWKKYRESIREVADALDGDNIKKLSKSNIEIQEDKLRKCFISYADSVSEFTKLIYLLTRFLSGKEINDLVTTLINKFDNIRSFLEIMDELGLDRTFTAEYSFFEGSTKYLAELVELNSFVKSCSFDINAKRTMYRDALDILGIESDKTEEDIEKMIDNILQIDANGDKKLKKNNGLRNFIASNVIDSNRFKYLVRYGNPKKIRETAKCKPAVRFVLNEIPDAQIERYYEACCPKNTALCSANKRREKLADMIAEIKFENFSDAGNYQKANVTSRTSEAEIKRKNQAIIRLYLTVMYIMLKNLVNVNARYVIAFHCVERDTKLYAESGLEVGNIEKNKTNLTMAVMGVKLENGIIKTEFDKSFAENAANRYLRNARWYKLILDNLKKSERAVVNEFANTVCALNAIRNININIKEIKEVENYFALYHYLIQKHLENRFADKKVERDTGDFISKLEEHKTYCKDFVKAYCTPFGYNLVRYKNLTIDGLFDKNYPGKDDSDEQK

B1: target 1 insG 3' of 6,insC 3' of 5 (mixed)
RNA 1: CACCCGUGCAAAAAUGCAGGGGUCUAAAACUGAGCGGAUAACCUCUCUAUGG
RNA 2: GGGAAUGGAUCCACAUCUACGAAUUCGUACCAUAGAGAGGUUAUCCGGCCUCACCGAGAUCGGAAGAGCACACGU
B2: target 1 insU 3' of 12,insC 3' of 3 (mixed)
RNA 1: CACCCGUGCAAAAAUGCAGGGGUCUAAAACUGAGCGGAUAACCUCUCUAUGG
RNA 2: GGGAAUGGAUCCACAUCUACGAAUUCGUACCAUAGAGAGGUUUAUCCGCUCCACCGAGAUCGGAAGAGCACACGU
B3: target 1 insA 3' of 11,insA 3' of 10 (mixed)
RNA 1: CACCCGUGCAAAAAUGCAGGGGUCUAAAACUGAGCGGAUAACCUCUCUAUGG
RNA 2: GGGAAUGGAUCCACAUCUACGAAUUCGUACCAUAGAGAGGUAUAAUCCGCUCACCGAGAUCGGAAGAGCACACGU
B4: target 1 insA 3' of 11,insU 3' of 4 (mixed)
RNA 1: CACCCGUGCAAAAAUGCAGGGGUCUAAAACUGAGCGGAUAACCUCUCUAUGG
RNA 2: GGGAAUGGAUCCACAUCUACGAAUUCGUACCAUAGAGAGGUAUAUCCGCUUCACCGAGAUCGGAAGAGCACACGU
B5: target 1 insU 3' of 14,insU 3' of 7 (mixed)
RNA 1: CACCCGUGCAAAAAUGCAGGGGUCUAAAACUGAGCGGAUAACCUCUCUAUGG
RNA 2: GGGAAUGGAUCCACAUCUACGAAUUCGUACCAUAGAGAUGGUUAUCUCGCUCACCGAGAUCGGAAGAGCACACGU
B6: target 1 insU 3' of 20,insA 3' of 19 (mixed)
RNA 1: CACCCGUGCAAAAAUGCAGGGGUCUAAAACUGAGCGGAUAACCUCUCUAUGG
RNA 2: GGGAAUGGAUCCACAUCUACGAAUUCGUACCAUUAAGAGAGGUUAUCCGCUCACCGAGAUCGGAAGAGCACACGU
B7: target 1 insC 3' of 18,insA 3' of 6 (mixed)
RNA 1: CACCCGUGCAAAAAUGCAGGGGUCUAAAACUGAGCGGAUAACCUCUCUAUGG
RNA 2: GGGAAUGGAUCCACAUCUACGAAUUCGUACCAUACGAGAGGUUAUCCAGCUCACCGAGAUCGGAAGAGCACACGU
B8: target 1 insU 3' of 2,insG 3' of 1 (mixed)
RNA 1: CACCCGUGCAAAAAUGCAGGGGUCUAAAACUGAGCGGAUAACCUCUCUAUGG
RNA 2: GGGAAUGGAUCCACAUCUACGAAUUCGUACCAUAGAGAGGUUAUCCGCUCUAGCCGAGAUCGGAAGAGCACACGU
B9: target 1 insU 3' of 7,insU 3' of 2 (mixed)
RNA 1: CACCCGUGCAAAAAUGCAGGGGUCUAAAACUGAGCGGAUAACCUCUCUAUGG
RNA 2: GGGAAUGGAUCCACAUCUACGAAUUCGUACCAUAGAGAGGUUAUCUCGCUCUACCGAGAUCGGAAGAGCACACGU
B10: target 1 insU 3' of 15,insU 3' of 12 (mixed)
RNA 1: CACCCGUGCAAAAAUGCAGGGGUCUAAAACUGAGCGGAUAACCUCUCUAUGG
RNA 2: GGGAAUGGAUCCACAUCUACGAAUUCGUACCAUAGAGUAGGUUUAUCCGCUCACCGAGAUCGGAAGAGCACACGU
B11: target 1 insC 3' of 14,insG 3' of 10 (mixed)
RNA 1: CACCCGUGCAAAAAUGCAGGGGUCUAAAACUGAGCGGAUAACCUCUCUAUGG
RNA 2: GGGAAUGGAUCCACAUCUACGAAUUCGUACCAUAGAGACGGUUGAUCCGCUCACCGAGAUCGGAAGAGCACACGU
B12: target 1 insU 3' of 15,insU 3' of 9 (mixed)
RNA 1: CACCCGUGCAAAAAUGCAGGGGUCUAAAACUGAGCGGAUAACCUCUCUAUGG
RNA 2: GGGAAUGGAUCCACAUCUACGAAUUCGUACCAUAGAGUAGGUUAUUCCGCUCACCGAGAUCGGAAGAGCACACGU
B13: target 1 G17A,A18C (mixed)
RNA 1: CACCCGUGCAAAAAUGCAGGGGUCUAAAACUGAGCGGAUAACCUCUCUAUGG
RNA 2: GGGAAUGGAUCCACAUCUACGAAUUCGUACCAUCAAGAGGUUAUCCGCUCACCGAGAUCGGAAGAGCACACGU
B14: target 1 C2U,C7A (mixed)
RNA 1: CACCCGUGCAAAAAUGCAGGGGUCUAAAACUGAGCGGAUAACCUCUCUAUGG
RNA 2: GGGAAUGGAUCCACAUCUACGAAUUCGUACCAUAGAGAGGUUAUACGCUUACCGAGAUCGGAAGAGCACACGU
B15: target 1 insU 3' of 17,insU 3' of 15 (mixed)
RNA 1: CACCCGUGCAAAAAUGCAGGGGUCUAAAACUGAGCGGAUAACCUCUCUAUGG
RNA 2: GGGAAUGGAUCCACAUCUACGAAUUCGUACCAUAGUAGUAGGUUAUCCGCUCACCGAGAUCGGAAGAGCACACGU
B16: target 1 C2A,A9C (mixed)
RNA 1: CACCCGUGCAAAAAUGCAGGGGUCUAAAACUGAGCGGAUAACCUCUCUAUGG
RNA 2: GGGAAUGGAUCCACAUCUACGAAUUCGUACCAUAGAGAGGUUCUCCGCUAACCGAGAUCGGAAGAGCACACGU
B17: target 1 C6U,U10A (mixed)
RNA 1: CACCCGUGCAAAAAUGCAGGGGUCUAAAACUGAGCGGAUAACCUCUCUAUGG
RNA 2: GGGAAUGGAUCCACAUCUACGAAUUCGUACCAUAGAGAGGUAAUCUGCUCACCGAGAUCGGAAGAGCACACGU
B18: target 1 insG 3' of 21,insA 3' of 4 (mixed)
RNA 1: CACCCGUGCAAAAAUGCAGGGGUCUAAAACUGAGCGGAUAACCUCUCUAUGG
RNA 2: GGGAAUGGAUCCACAUCUACGAAUUCGUACCGAUAGAGAGGUUAUCCGCAUCACCGAGAUCGGAAGAGCACACGU
B19: target 1 insG 3' of 16,insC 3' of 15 (mixed)
RNA 1: CACCCGUGCAAAAAUGCAGGGGUCUAAAACUGAGCGGAUAACCUCUCUAUGG
RNA 2: GGGAAUGGAUCCACAUCUACGAAUUCGUACCAUAGAGGCAGGUUAUCCGCUCACCGAGAUCGGAAGAGCACACGU
B20: target 1 insG 3' of 6 (mixed)
RNA 1: CACCCGUGCAAAAAUGCAGGGGUCUAAAACUGAGCGGAUAACCUCUCUAUGG
RNA 2: GGGAAUGGAUCCACAUCUACGAAUUCGUACCAUAGAGAGGUUAUCCGGCUCACCGAGAUCGGAAGAGCACACGU
B21: target 1 insC 3' of 22,insG 3' of 16 (mixed)
RNA 1: CACCCGUGCAAAAAUGCAGGGGUCUAAAACUGAGCGGAUAACCUCUCUAUGG
RNA 2: GGGAAUGGAUCCACAUCUACGAAUUCGUACCCAUAGAGGAGGUUAUCCGCUCACCGAGAUCGGAAGAGCACACGU
B22: target 1 insC 3' of 22,insA 3' of 12 (mixed)
RNA 1: CACCCGUGCAAAAAUGCAGGGGUCUAAAACUGAGCGGAUAACCUCUCUAUGG
RNA 2: GGGAAUGGAUCCACAUCUACGAAUUCGUACCCAUAGAGAGGAUUAUCCGCUCACCGAGAUCGGAAGAGCACACGU
B23: target 1 insU 3' of 18,insA 3' of 6 (mixed)
RNA 1: CACCCGUGCAAAAAUGCAGGGGUCUAAAACUGAGCGGAUAACCUCUCUAUGG
RNA 2: GGGAAUGGAUCCACAUCUACGAAUUCGUACCAUAUGAGAGGUUAUCCAGCUCACCGAGAUCGGAAGAGCACACGU

The target of this data set is T1, EsCas13d, nuclease-dead. The experiment in a line: crRNA (strand 1, pre-loaded); Mg2+; 40 mM Tris-HCl pH 7.5, 150 mM NaCl, 6 mM MgCl2, 1 mM DTT, 0.1% Tween-20, 0.2 mg/ml BSA; 25 C; 10 min per concentration, then washed. The conditions noted are these: tags: His6-TwinStrep-SUMO cleaved; N-terminal SNAP kept (SNAP-Surface 488); label: 3' end held by stalled T7 RNA polymerase.
What is called Kd is the free concentration of one partner at which half of the binding sites on the other are occupied at equilibrium, for simple one-to-one binding. Low values mean a tighter complex, high ones a looser complex. B1 registered a Kd of 13.9 ± 1.1 nM.
With B2, the Kd amounted to 8.3 ± 0.6 nM.
Under B3 stands 9.4 ± 0.5 nM; under B4, 13.7 ± 0.9 nM.
Under B5 stands 77 ± 9 nM; under B6, 20.9 ± 1.4 nM; under B7, 32.3 ± 1.5 nM.
Molecule B8 yielded a Kd of 12.2 ± 0.6 nM.
Molecule B9 displayed a Kd of 21.3 ± 1.1 nM.
B10 yielded an equilibrium dissociation constant (Kd) of 8.1 ± 0.4 nM.
As to B11, the Kd worked out at 43 ± 10 nM.
B12: the equilibrium dissociation constant (Kd) is 59 ± 16 nM.
With B13 the figure was 67 ± 10 nM; with B14, 6.8 ± 0.5 nM.
The molecule B15 registered a dissociation constant Kd of 64 ± 28 nM.
With B16, the Kd turned out to be 12.2 ± 0.4 nM.
Under B17 stands 9.8 ± 0.4 nM; under B18, 41 ± 10 nM; under B19, 28.8 ± 2.1 nM.
As to B20, the Kd amounted to 11.4 ± 0.5 nM.
As to B21, binding was characterised by a dissociation constant (Kd) of 75 ± 21 nM.
Take B22: binding was put at a Kd of 42 ± 5 nM.
Under B23 stands 32.6 ± 1.1 nM.
